± gives the uncertainty stated by the source.

The text below walks through data of the Human Domainome abundance scans (Beltran et al. 2025).

The nature of the data set: abundance fitness (aPCA) (normalised: wild type 0, dead -1); higher = more abundant; growth selection in yeast, the domain comes from the species named. Conditions: Homo sapiens.
As to “BAG family molecular chaperone regulator 3 P32F, O95817”, the abundance fitness was -0.511 ± 0.47.

The substance “BAG family molecular chaperone regulator 3 P32G, O95817” had an abundance fitness of 0.335 ± 0.076.

As to “BAG family molecular chaperone regulator 3 P32K, O95817”, the abundance fitness is -0.002 ± 0.068.

The substance “BAG family molecular chaperone regulator 3 P32L, O95817” showed an abundance fitness of -0.458 ± 0.12.

Take “BAG family molecular chaperone regulator 3 P32M, O95817”: the abundance fitness is -0.766 ± 0.23.

“BAG family molecular chaperone regulator 3 P32N, O95817” showed an abundance fitness of 0.039 ± 0.29.

“BAG family molecular chaperone regulator 3 P32Q, O95817” yielded an abundance fitness of -0.205 ± 0.28.

“BAG family molecular chaperone regulator 3 P32R, O95817” yielded an abundance fitness of 0.039 ± 0.074.

“BAG family molecular chaperone regulator 3 P32S, O95817” had an abundance fitness of -0.054 ± 0.087.

The substance “BAG family molecular chaperone regulator 3 P32T, O95817” registered an abundance fitness of 0.423 ± 0.071.

In turn, “BAG family molecular chaperone regulator 3 P32V, O95817” showed an abundance fitness of -0.268 ± 0.13.

For “BAG family molecular chaperone regulator 3 P32W, O95817”, the abundance fitness is -0.316 ± 0.095.

“BAG family molecular chaperone regulator 3 P32Y, O95817”: the abundance fitness is -0.23 ± 0.38.

“BAG family molecular chaperone regulator 3 P37A, O95817” registered an abundance fitness of 0.4 ± 0.12.

With “BAG family molecular chaperone regulator 3 P37C, O95817”, the abundance fitness was 0.143 ± 0.2.

As for “BAG family molecular chaperone regulator 3 P37D, O95817”, the abundance fitness was 0.447 ± 0.16.

The substance “BAG family molecular chaperone regulator 3 P37E, O95817” came in with an abundance fitness of 0.86 ± 0.092.

In turn, “BAG family molecular chaperone regulator 3 P37F, O95817” returned an abundance fitness of 0.528 ± 0.17.

As to “BAG family molecular chaperone regulator 3 P37G, O95817”, the abundance fitness came out at 0.024 ± 0.084.

In turn, “BAG family molecular chaperone regulator 3 P37H, O95817” showed an abundance fitness of 0.517 ± 0.18.

With “BAG family molecular chaperone regulator 3 P37I, O95817”, the abundance fitness is 0.485 ± 0.08.

On to “BAG family molecular chaperone regulator 3 P37K, O95817”, for which the abundance fitness was 0.937 ± 0.12.

Substance “BAG family molecular chaperone regulator 3 P37L, O95817” gave an abundance fitness of 0.128 ± 0.067.

The substance “BAG family molecular chaperone regulator 3 P37M, O95817” gave an abundance fitness of 0.465 ± 0.12.

“BAG family molecular chaperone regulator 3 P37N, O95817” yielded an abundance fitness of 0.448 ± 0.2.

In the case of “BAG family molecular chaperone regulator 3 P37Q, O95817”, the abundance fitness is 0.24 ± 0.16.

Take “BAG family molecular chaperone regulator 3 P37R, O95817”: the abundance fitness stood at 0.857 ± 0.077.

“BAG family molecular chaperone regulator 3 P37S, O95817” showed an abundance fitness of 0.7 ± 0.072.

“BAG family molecular chaperone regulator 3 P37T, O95817” gave an abundance fitness of 0.898 ± 0.11.

“BAG family molecular chaperone regulator 3 P37V, O95817” registered an abundance fitness of 0.358 ± 0.079.

“BAG family molecular chaperone regulator 3 P37W, O95817” returned an abundance fitness of 0.115 ± 0.086.

“BAG family molecular chaperone regulator 3 P37Y, O95817” registered an abundance fitness of 0.573 ± 0.18.
